± gives the uncertainty stated by the source.

Our source for the abundance fitness values is the Human Domainome abundance scans (Beltran et al. 2025).

The chains are these.
B1: POU domain, class 3, transcription factor 2, residues 262 to 338; numbered along this chain, P20265 (parent)
chain: EDTPTSDDLEQFAKQFKQRRIKLGFTQADVGLALGTLYGNVFSQTTICRFEALQLSFKNMCKLKPLLNKWLEEADSS

This series covers variants of B1. Kind of series: abundance fitness (aPCA) (normalised: wild type 0, dead -1); higher = more abundant; growth selection in yeast, the domain comes from the species named. The note with it: Homo sapiens.
EDTPTSDDLEQFAKQFKQRRIKLGFTQADVGLALGTLYGNVFSQTTICRFEALQLSFKNMCKLKLLLNKWLEEADSS: the abundance fitness was -0.375 ± 0.13.
The result for EDTPTSDDLEQFAKQFKQRRIKLGFTQADVGLALGTLYGNVFSQTTICRFEALQLSFKNMCKLKCLLNKWLEEADSS reads 0.038 ± 0.2; that for EDTPTSDDLEQFAKQFKQRRIKLGFTQADVGLALGTLYGNVFSQTTICRFEALQLSFKNMCKLKGLLNKWLEEADSS, -0.108 ± 0.05.
Consider EDTPTSDDLEQFAKQFKQRRIKLGFTQADVGLALGTLYGNVFSQTTICRFEALQLSFKNMCKLKRLLNKWLEEADSS, for which the abundance fitness is -0.182 ± 0.051.
EDTPTSDDLEQFAKQFKQRRIKLGFTQADVGLALGTLYGNVFSQTTICRFEALQLSFKNMCKLKQLLNKWLEEADSS: the abundance fitness amounted to 0.124 ± 0.14.
Regarding EDTPTSDDLEQFAKQFKQRRIKLGFTQADVGLALGTLYGNVFSQTTICRFEALQLSFKNMCKLKALLNKWLEEADSS, the abundance fitness was -0.139 ± 0.094.
As for EDTPTSDDLEQFAKQFKQRRIKLGFTQADVGLALGTLYGNVFSQTTICRFEALQLSFKNMCKLKNLLNKWLEEADSS, the figure is -0.138 ± 0.17; as for EDTPTSDDLEQFAKQFKQRRIKLGFTQADVGLALGTLYGNVFSQTTICRFEALQLSFKNMCKLKDLLNKWLEEADSS, -0.118 ± 0.097.
Consider EDTPTSDDLEQFAKQFKQRRIKLGFTQADVGLALGTLYGNVFSQTTICRFEALQLSFKNMCKLKSLLNKWLEEADSS, for which the abundance fitness was -0.38 ± 0.19.
EDTPTSDDLEQFAKQFKQRRIKLGFTQADVGLALGTLYGNVFSQTTICRFEALQLSFKNMCKLKELLNKWLEEADSS: the abundance fitness was -0.133 ± 0.072.
As for EDTPTSDDLEQFAKQFKQRRIKLGFTQADVGLALGTLYGNVFSQTTICRFEALQLSFKNMCKLKKLLNKWLEEADSS, the figure is -0.213 ± 0.22.
EDTPTSDDLEQFAKQFKQRRIKLGFTQADVGLALGTLYGNVFSQTTICRFEALQLSFKNMCKLKWLLNKWLEEADSS: the abundance fitness was -0.201 ± 0.092.
As for EDTPTSDDLEQFAKQFKQRRIKLGFTQADVGLALGTLYGNVFSQTTICRFEALQLSFKNMCKLKTLLNKWLEEADSS, the abundance fitness was -0.059 ± 0.12.
As for EDTPTSDDLEQFAKQFKQRRIKLGFTQADVGLALGTLYGNVFSQTTICRFEALQLSFKNMCKLKVLLNKWLEEADSS, the figure is -0.082 ± 0.074.
The result for EDTPTSDDLEQFAKQFKQRRIKLGFTQADVGLALGTLYGNVFSQTTICRFEALQLSFKNMCKLKHLLNKWLEEADSS reads -0.034 ± 0.25; that for EDTPTSDDLEQFAKQFKQRRIKLGFTQADVGLALGTLYGNVFSQTTICRFEALQLSFKNMCKLKYLLNKWLEEADSS, 0.137 ± 0.23.
Turning to EDTPTSDDLEQFAKQFKQRRIKLGFTQADVGLALGTLYGNVFSQTTICRFEALQLSFKNMCKGKPLLNKWLEEADSS, the abundance fitness is -0.796 ± 0.041.
The result for EDTPTSDDLEQFAKQFKQRRIKLGFTQADVGLALGTLYGNVFSQTTICRFEALQLSFKNMCKCKPLLNKWLEEADSS reads -0.399 ± 0.05; that for EDTPTSDDLEQFAKQFKQRRIKLGFTQADVGLALGTLYGNVFSQTTICRFEALQLSFKNMCKSKPLLNKWLEEADSS, -0.668 ± 0.059.
For EDTPTSDDLEQFAKQFKQRRIKLGFTQADVGLALGTLYGNVFSQTTICRFEALQLSFKNMCKFKPLLNKWLEEADSS, the abundance fitness was -0.347 ± 0.082.
Consider EDTPTSDDLEQFAKQFKQRRIKLGFTQADVGLALGTLYGNVFSQTTICRFEALQLSFKNMCKMKPLLNKWLEEADSS, for which the abundance fitness amounted to 0.004 ± 0.045.
Consider EDTPTSDDLEQFAKQFKQRRIKLGFTQADVGLALGTLYGNVFSQTTICRFEALQLSFKNMCKRKPLLNKWLEEADSS, for which the abundance fitness was -0.794 ± 0.048.
As for EDTPTSDDLEQFAKQFKQRRIKLGFTQADVGLALGTLYGNVFSQTTICRFEALQLSFKNMCKDKPLLNKWLEEADSS, the figure is -0.785 ± 0.11.
For EDTPTSDDLEQFAKQFKQRRIKLGFTQADVGLALGTLYGNVFSQTTICRFEALQLSFKNMCKVKPLLNKWLEEADSS, the abundance fitness is -0.263 ± 0.029.
The result for EDTPTSDDLEQFAKQFKQRRIKLGFTQADVGLALGTLYGNVFSQTTICRFEALQLSFKNMCKKKPLLNKWLEEADSS reads -0.749 ± 0.14.
The result for EDTPTSDDLEQFAKQFKQRRIKLGFTQADVGLALGTLYGNVFSQTTICRFEALQLSFKNMCKWKPLLNKWLEEADSS reads -0.489 ± 0.037.
With EDTPTSDDLEQFAKQFKQRRIKLGFTQADVGLALGTLYGNVFSQTTICRFEALQLSFKNMCKHKPLLNKWLEEADSS, the abundance fitness is -0.451 ± 0.11.
As to EDTPTSDDLEQFAKQFKQRRIKLGFTQADVGLALGTLYGNVFSQTTICRFEALQLSFKNMCKEKPLLNKWLEEADSS, the abundance fitness was -0.803 ± 0.09.
Regarding EDTPTSDDLEQFAKQFKQRRIKLGFTQADVGLALGTLYGNVFSQTTICRFEALQLSFKNMCKAKPLLNKWLEEADSS, the abundance fitness was -0.665 ± 0.051.
As for EDTPTSDDLEQFAKQFKQRRIKLGFTQADVGLALGTLYGNVFSQTTICRFEALQLSFKNMCKTKPLLNKWLEEADSS, the figure is -0.524 ± 0.061.
The result for EDTPTSDDLEQFAKQFKQRRIKLGFTQADVGLALGTLYGNVFSQTTICRFEALQLSFKNMCKQKPLLNKWLEEADSS reads -1.03 ± 0.18; that for EDTPTSDDLEQFAKQFKQRRIKLGFTQADVGLALGTLYGNVFSQTTICRFEALQLSFKNMCKIKPLLNKWLEEADSS, -0.148 ± 0.073; that for EDTPTSDDLEQFAKQFKQRRIKLGFTQADVGLALGTLYGNVFSQTTICRFEALQLSFKNMCWLKPLLNKWLEEADSS, -0.172 ± 0.038.
EDTPTSDDLEQFAKQFKQRRIKLGFTQADVGLALGTLYGNVFSQTTICRFEALQLSFKNMCCLKPLLNKWLEEADSS: the abundance fitness is -0.25 ± 0.053.
Consider EDTPTSDDLEQFAKQFKQRRIKLGFTQADVGLALGTLYGNVFSQTTICRFEALQLSFKNMCPLKPLLNKWLEEADSS, for which the abundance fitness was -0.99 ± 0.15.
